System: BMDM
Test: qRT-PCR of BMDM (palmitate, cytokines, adipocyte conditioned media)
Type: cell-based, mouse
Conditions: direct addition of cytokine
Experimental: Real-time Quantitative RT-PCR Analysis RNA (0.5-1 μg) was reverse transcribed using iScript™ cDNA Synthesis Kit (Biorad) and RT-PCR analysis was conducted using kapa SYBR green Supermix (kappa syber) and a Mastercycler Realplex (Eppendorf) the primers used are listed. Fold change in mRNA expression was calculated using the comparative cycle method (ΔΔCt).
Cell culture. Primary bone marrow derived macrophage (BMDM) was prepared by flushing the bone marrow of the tibia and femur of 6-8 week old C57/B6 mice. The cells were grown in DMEM supplemented with 15% L929-conditioned media, 10% FBS and 1% penicillin/streptomycin for 7 days. BMDM were stimulated 250 pM palmitate conjugated with BSA or BSA as a control for 24 hours, or TNFα (10 ng/ml, 410-MT-010; R&D systems), IL-6 (40 nglml, 406-ML-005; R&D systems) and IL-4 (1 Onglml, 404-ML-010; R&D systems) for 24 h. In some assays, differentiated BMDM were treated with conditioned media from 3T3-L1 adipocytes differentiated as described (Lin, et al., J Biol Chem, 2005; 280:4617-4626) and treated with 250 pM palmitate conjugated with BSA or BSA for 24 hours. In certain experiments, anti-TNFα (0.4 μg/ml, AF-410-NA, R&D systems) or anti-IL-6 (0.025 μg/ml, MAB406; R&D systems) blocking antibody or IgG control (Normal Goat IgG: AB-108-C, Rat IgG1: MAB005; R&D systems) was added to conditioned media. […]

B1: IL-6: cytokine, 406-ML-005 R&D systems (protein, UniProt P08505 25-211, looked up)
Interleukin-6: FPTSQVRRGDFTEDTTPNRPVYTTSQVGGLITHVLWEIVEMRKELCNGNSDCMNNDDALAENNLKLPEIQRNDGCYQTGYNQEICLLKISSGLLEYHSYLEYMKNNLKDNKKDKARVLQRDTETLIHIFNQEVKDLHKIVLPTPISNALLTDKLESQKEWLRTKTIQFILKSLEEFLKVTLRSTRQT
In the case of B1, the “Ntn1 mRNA in BMDMs” value is reported as “increased Ntn1 mRNA”.
